# Assay results taken from patent US12679878B2, “CRF2 receptor agonists and their use in therapy” (SANOFI, priority 2020, dated 2026).
# Starred links: 1 amine or outer side, 2 acyl side, 3 side chain; linkers in the order of their positions; H or OH if unused. Non-standard residues stand in square brackets, D forms with d. Groups on a side chain read outwards from the residue. No end group written: not given here. *: point of attachment. C18 diacid = O=C(O)CCCCCCCCCCCCCCCCC(=O)*; γGlu = O=C(O)[C@H](CCC(=O)[*:2])N[*:1]; Palmitoyl = CCCCCCCCCCCCCCCC(=O)*; AEEA = NCCOCCOCC(=O)O; Aib = CC(C)(N)C(=O)O
# B1: SEQ ID NO: 8 (peptide)
# peptide: FTLSLDVPTKIK([γGlu-Palmitoyl])QKLLKQEKQKKQRQKAKTAAQILAQV-NH2
# modifications: N-terminus assumed
# SMILES: CCCCCCCCCCCCCCCC(=O)N[C@@H](CCC(=O)NCCCC[C@H](NC(=O)[C@@H](NC(=O)[C@H](CCCCN)NC(=O)[C@@H](NC(=O)[C@@H]1CCCN1C(=O)[C@@H](NC(=O)[C@H](CC(=O)O)NC(=O)[C@H](CC(C)C)NC(=O)[C@H](CO)NC(=O)[C@H](CC(C)C)NC(=O)[C@@H](NC(=O)[C@@H](N)Cc1ccccc1)[C@@H](C)O)C(C)C)[C@@H](C)O)[C@@H](C)CC)C(=O)N[C@@H](CCC(N)=O)C(=O)N[C@@H](CCCCN)C(=O)N[C@@H](CC(C)C)C(=O)N[C@@H](CC(C)C)C(=O)N[C@@H](CCCCN)C(=O)N[C@@H](CCC(N)=O)C(=O)N[C@@H](CCC(=O)O)C(=O)N[C@@H](CCCCN)C(=O)N[C@@H](CCC(N)=O)C(=O)N[C@@H](CCCCN)C(=O)N[C@@H](CCCCN)C(=O)N[C@@H](CCC(N)=O)C(=O)N[C@@H](CCCNC(=N)N)C(=O)N[C@@H](CCC(N)=O)C(=O)N[C@@H](CCCCN)C(=O)N[C@@H](C)C(=O)N[C@@H](CCCCN)C(=O)N[C@H](C(=O)N[C@@H](C)C(=O)N[C@@H](C)C(=O)N[C@@H](CCC(N)=O)C(=O)N[C@H](C(=O)N[C@@H](CC(C)C)C(=O)N[C@@H](C)C(=O)N[C@@H](CCC(N)=O)C(=O)N[C@H](C(N)=O)C(C)C)[C@@H](C)CC)[C@@H](C)O)C(=O)O
# B2: SEQ ID NO: 11 (peptide)
# peptide: FTLSLDVPTKIK([γGlu-Palmitoyl])QKLLKQEKQKKQRQKAKTNAQILAQV-NH2
# modifications: N-terminus assumed
# SMILES: CCCCCCCCCCCCCCCC(=O)N[C@@H](CCC(=O)NCCCC[C@H](NC(=O)[C@@H](NC(=O)[C@H](CCCCN)NC(=O)[C@@H](NC(=O)[C@@H]1CCCN1C(=O)[C@@H](NC(=O)[C@H](CC(=O)O)NC(=O)[C@H](CC(C)C)NC(=O)[C@H](CO)NC(=O)[C@H](CC(C)C)NC(=O)[C@@H](NC(=O)[C@@H](N)Cc1ccccc1)[C@@H](C)O)C(C)C)[C@@H](C)O)[C@@H](C)CC)C(=O)N[C@@H](CCC(N)=O)C(=O)N[C@@H](CCCCN)C(=O)N[C@@H](CC(C)C)C(=O)N[C@@H](CC(C)C)C(=O)N[C@@H](CCCCN)C(=O)N[C@@H](CCC(N)=O)C(=O)N[C@@H](CCC(=O)O)C(=O)N[C@@H](CCCCN)C(=O)N[C@@H](CCC(N)=O)C(=O)N[C@@H](CCCCN)C(=O)N[C@@H](CCCCN)C(=O)N[C@@H](CCC(N)=O)C(=O)N[C@@H](CCCNC(=N)N)C(=O)N[C@@H](CCC(N)=O)C(=O)N[C@@H](CCCCN)C(=O)N[C@@H](C)C(=O)N[C@@H](CCCCN)C(=O)N[C@H](C(=O)N[C@@H](CC(N)=O)C(=O)N[C@@H](C)C(=O)N[C@@H](CCC(N)=O)C(=O)N[C@H](C(=O)N[C@@H](CC(C)C)C(=O)N[C@@H](C)C(=O)N[C@@H](CCC(N)=O)C(=O)N[C@H](C(N)=O)C(C)C)[C@@H](C)CC)[C@@H](C)O)C(=O)O
# B3: SEQ ID NO: 115 (peptide)
# peptide: IVLSLDVPIKLK([AEEA-AEEA-γGlu-C18 diacid])QILLKQERQK[Aib]QREQAEKNKQILERV-NH2
# modifications: N-terminus assumed
# SMILES: CC[C@H](C)[C@H](N)C(=O)N[C@H](C(=O)N[C@@H](CC(C)C)C(=O)N[C@@H](CO)C(=O)N[C@@H](CC(C)C)C(=O)N[C@@H](CC(=O)O)C(=O)N[C@H](C(=O)N1CCC[C@H]1C(=O)N[C@H](C(=O)N[C@@H](CCCCN)C(=O)N[C@@H](CC(C)C)C(=O)N[C@@H](CCCCNC(=O)COCCOCCNC(=O)COCCOCCNC(=O)CC[C@H](NC(=O)CCCCCCCCCCCCCCCCC(=O)O)C(=O)O)C(=O)N[C@@H](CCC(N)=O)C(=O)N[C@H](C(=O)N[C@@H](CC(C)C)C(=O)N[C@@H](CC(C)C)C(=O)N[C@@H](CCCCN)C(=O)N[C@@H](CCC(N)=O)C(=O)N[C@@H](CCC(=O)O)C(=O)N[C@@H](CCCNC(=N)N)C(=O)N[C@@H](CCC(N)=O)C(=O)N[C@@H](CCCCN)C(=O)NC(C)(C)C(=O)N[C@@H](CCC(N)=O)C(=O)N[C@@H](CCCNC(=N)N)C(=O)N[C@@H](CCC(=O)O)C(=O)N[C@@H](CCC(N)=O)C(=O)N[C@@H](C)C(=O)N[C@@H](CCC(=O)O)C(=O)N[C@@H](CCCCN)C(=O)N[C@@H](CC(N)=O)C(=O)N[C@@H](CCCCN)C(=O)N[C@@H](CCC(N)=O)C(=O)N[C@H](C(=O)N[C@@H](CC(C)C)C(=O)N[C@@H](CCC(=O)O)C(=O)N[C@@H](CCCNC(=N)N)C(=O)N[C@H](C(N)=O)C(C)C)[C@@H](C)CC)[C@@H](C)CC)[C@@H](C)CC)C(C)C)C(C)C
# B4: SEQ ID NO: 116 (peptide)
# peptide: IVLSLDVPIKLK([AEEA-AEEA-γGlu-C18 diacid])QILLKQERQK[Aib]QREKAEKNKQILAQV-NH2
# modifications: N-terminus assumed
# SMILES: CC[C@H](C)[C@H](N)C(=O)N[C@H](C(=O)N[C@@H](CC(C)C)C(=O)N[C@@H](CO)C(=O)N[C@@H](CC(C)C)C(=O)N[C@@H](CC(=O)O)C(=O)N[C@H](C(=O)N1CCC[C@H]1C(=O)N[C@H](C(=O)N[C@@H](CCCCN)C(=O)N[C@@H](CC(C)C)C(=O)N[C@@H](CCCCNC(=O)COCCOCCNC(=O)COCCOCCNC(=O)CC[C@H](NC(=O)CCCCCCCCCCCCCCCCC(=O)O)C(=O)O)C(=O)N[C@@H](CCC(N)=O)C(=O)N[C@H](C(=O)N[C@@H](CC(C)C)C(=O)N[C@@H](CC(C)C)C(=O)N[C@@H](CCCCN)C(=O)N[C@@H](CCC(N)=O)C(=O)N[C@@H](CCC(=O)O)C(=O)N[C@@H](CCCNC(=N)N)C(=O)N[C@@H](CCC(N)=O)C(=O)N[C@@H](CCCCN)C(=O)NC(C)(C)C(=O)N[C@@H](CCC(N)=O)C(=O)N[C@@H](CCCNC(=N)N)C(=O)N[C@@H](CCC(=O)O)C(=O)N[C@@H](CCCCN)C(=O)N[C@@H](C)C(=O)N[C@@H](CCC(=O)O)C(=O)N[C@@H](CCCCN)C(=O)N[C@@H](CC(N)=O)C(=O)N[C@@H](CCCCN)C(=O)N[C@@H](CCC(N)=O)C(=O)N[C@H](C(=O)N[C@@H](CC(C)C)C(=O)N[C@@H](C)C(=O)N[C@@H](CCC(N)=O)C(=O)N[C@H](C(N)=O)C(C)C)[C@@H](C)CC)[C@@H](C)CC)[C@@H](C)CC)C(C)C)C(C)C
# B5: SEQ ID NO: 114 (peptide)
# peptide: IVLSLDVPIKLK([AEEA-AEEA-γGlu-C18 diacid])QILLEQARQK[Aib]QRAQAETNKRILERV-NH2
# B6: SEQ ID NO: 118 (peptide)
# peptide: IVLSLD[dV]PIKLK([AEEA-AEEA-γGlu-C18 diacid])QILLKQERQK[Aib]QRQKAEKNKQILAQV-NH2
# modifications: N-terminus assumed
# SMILES: CC[C@H](C)[C@H](N)C(=O)N[C@H](C(=O)N[C@@H](CC(C)C)C(=O)N[C@@H](CO)C(=O)N[C@@H](CC(C)C)C(=O)N[C@@H](CC(=O)O)C(=O)N[C@@H](C(=O)N1CCC[C@H]1C(=O)N[C@H](C(=O)N[C@@H](CCCCN)C(=O)N[C@@H](CC(C)C)C(=O)N[C@@H](CCCCNC(=O)COCCOCCNC(=O)COCCOCCNC(=O)CC[C@H](NC(=O)CCCCCCCCCCCCCCCCC(=O)O)C(=O)O)C(=O)N[C@@H](CCC(N)=O)C(=O)N[C@H](C(=O)N[C@@H](CC(C)C)C(=O)N[C@@H](CC(C)C)C(=O)N[C@@H](CCCCN)C(=O)N[C@@H](CCC(N)=O)C(=O)N[C@@H](CCC(=O)O)C(=O)N[C@@H](CCCNC(=N)N)C(=O)N[C@@H](CCC(N)=O)C(=O)N[C@@H](CCCCN)C(=O)NC(C)(C)C(=O)N[C@@H](CCC(N)=O)C(=O)N[C@@H](CCCNC(=N)N)C(=O)N[C@@H](CCC(N)=O)C(=O)N[C@@H](CCCCN)C(=O)N[C@@H](C)C(=O)N[C@@H](CCC(=O)O)C(=O)N[C@@H](CCCCN)C(=O)N[C@@H](CC(N)=O)C(=O)N[C@@H](CCCCN)C(=O)N[C@@H](CCC(N)=O)C(=O)N[C@H](C(=O)N[C@@H](CC(C)C)C(=O)N[C@@H](C)C(=O)N[C@@H](CCC(N)=O)C(=O)N[C@H](C(N)=O)C(C)C)[C@@H](C)CC)[C@@H](C)CC)[C@@H](C)CC)C(C)C)C(C)C
# B7: SEQ ID NO: 113 (peptide)
# peptide: IVLSLDVPIKLK([AEEA-AEEA-γGlu-C18 diacid])QILLKQERQKKQRQQAETNKQILAQV-NH2
# B8: SEQ ID NO: 117 (peptide)
# peptide: IVLSLDVPIKLK([AEEA-AEEA-γGlu-C18 diacid])QILLKQERQK[Aib]QRQQAEKNKQILAQV-NH2
# modifications: N-terminus assumed
# SMILES: CC[C@H](C)[C@H](N)C(=O)N[C@H](C(=O)N[C@@H](CC(C)C)C(=O)N[C@@H](CO)C(=O)N[C@@H](CC(C)C)C(=O)N[C@@H](CC(=O)O)C(=O)N[C@H](C(=O)N1CCC[C@H]1C(=O)N[C@H](C(=O)N[C@@H](CCCCN)C(=O)N[C@@H](CC(C)C)C(=O)N[C@@H](CCCCNC(=O)COCCOCCNC(=O)COCCOCCNC(=O)CC[C@H](NC(=O)CCCCCCCCCCCCCCCCC(=O)O)C(=O)O)C(=O)N[C@@H](CCC(N)=O)C(=O)N[C@H](C(=O)N[C@@H](CC(C)C)C(=O)N[C@@H](CC(C)C)C(=O)N[C@@H](CCCCN)C(=O)N[C@@H](CCC(N)=O)C(=O)N[C@@H](CCC(=O)O)C(=O)N[C@@H](CCCNC(=N)N)C(=O)N[C@@H](CCC(N)=O)C(=O)N[C@@H](CCCCN)C(=O)NC(C)(C)C(=O)N[C@@H](CCC(N)=O)C(=O)N[C@@H](CCCNC(=N)N)C(=O)N[C@@H](CCC(N)=O)C(=O)N[C@@H](CCC(N)=O)C(=O)N[C@@H](C)C(=O)N[C@@H](CCC(=O)O)C(=O)N[C@@H](CCCCN)C(=O)N[C@@H](CC(N)=O)C(=O)N[C@@H](CCCCN)C(=O)N[C@@H](CCC(N)=O)C(=O)N[C@H](C(=O)N[C@@H](CC(C)C)C(=O)N[C@@H](C)C(=O)N[C@@H](CCC(N)=O)C(=O)N[C@H](C(N)=O)C(C)C)[C@@H](C)CC)[C@@H](C)CC)[C@@H](C)CC)C(C)C)C(C)C
# Biological target: human corticotropin-releasing factor 2α (CRF2 α receptor) (human), Q13324
# Sequence (Q13324 20-411): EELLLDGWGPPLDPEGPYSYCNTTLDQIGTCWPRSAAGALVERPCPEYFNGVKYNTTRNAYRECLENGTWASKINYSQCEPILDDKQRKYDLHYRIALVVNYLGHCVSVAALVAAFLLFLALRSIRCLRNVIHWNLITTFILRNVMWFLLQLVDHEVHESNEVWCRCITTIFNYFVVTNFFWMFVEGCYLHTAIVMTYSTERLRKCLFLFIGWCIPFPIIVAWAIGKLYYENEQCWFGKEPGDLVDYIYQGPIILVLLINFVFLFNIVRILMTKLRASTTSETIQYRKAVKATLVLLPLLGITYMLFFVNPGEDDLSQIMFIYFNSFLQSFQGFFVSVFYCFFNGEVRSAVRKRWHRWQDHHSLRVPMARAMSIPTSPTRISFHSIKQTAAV
# Test: cell-based or functional assay
"EC50 [nM], 0% HSA","EC50 [nM], 0.1% HSA",Binder
0.2 nM,–,B1
0.02 nM,–,B2
2.77 nM,–,B3
0.7 nM,–,B4
0.16 nM,12.4 nM,B5
0.04 nM,2.13 nM,B6
0.1 nM,11.9 nM,B7
0.11 nM,–,B8
